Data: publication doi:10.1101/2025.03.24.644971
Where a chain is given by its changes, count along the chain named.

T1: Scer_Rsc1 221-596 basic-surface mutant (Saccharomyces cerevisiae, UniProt P53236 221-596, K246E;R249E;R250E)
T1 sequence: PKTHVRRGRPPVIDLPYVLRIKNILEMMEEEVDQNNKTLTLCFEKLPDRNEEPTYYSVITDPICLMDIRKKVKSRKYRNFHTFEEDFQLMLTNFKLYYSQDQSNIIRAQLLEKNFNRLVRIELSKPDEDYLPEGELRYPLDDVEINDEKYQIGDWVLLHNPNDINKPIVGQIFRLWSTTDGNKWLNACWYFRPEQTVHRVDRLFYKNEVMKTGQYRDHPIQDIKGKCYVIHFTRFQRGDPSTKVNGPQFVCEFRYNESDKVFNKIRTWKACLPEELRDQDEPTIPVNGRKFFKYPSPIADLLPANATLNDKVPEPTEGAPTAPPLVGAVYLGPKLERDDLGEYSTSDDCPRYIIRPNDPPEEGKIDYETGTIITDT

T2: Scer_Rsc1 221-596 WT (Saccharomyces cerevisiae, UniProt P53236 221-596)
T2 sequence: T1 sequence with E26K, E29R, E30R

B1: A-rich (polyA) probe (dsDNA)
DNA 1: GCATCAGTCTTATAGGAAGAAAAACAAAAAGTCCATCGATCTAG
DNA 2: CTAGATCGATGGACTTTTTGTTTTTCTTCCTATAAGACTGATGC

How the values were obtained:
Test in all cases: EMSA
[1] = test system: Calb_Rsc1 213-599 BAH mutant (Candida albicans); conditions: 50 mM Tris-HCl pH 7.5, 100 mM NaCl, 2.5% glycerol, 0.1 mM EDTA, 1 mM DTT
[2] = test system: Calb_Rsc1 213-599 WT (AT-hook-BD2-BAH) (Candida albicans); conditions: 50 mM Tris-HCl pH 7.5, 100 mM NaCl, 2.5% glycerol, 0.1 mM EDTA, 1 mM DTT
[3] = molecular target: Scer_Rsc2 261-636 basic-surface mutant (Saccharomyces cerevisiae, UniProt Q06488 261-636, K286E;K289E;K290E)
Scer_Rsc2 261-636 basic-surface mutant, sequence (Q06488 261-636 K286E/K289E/K290E): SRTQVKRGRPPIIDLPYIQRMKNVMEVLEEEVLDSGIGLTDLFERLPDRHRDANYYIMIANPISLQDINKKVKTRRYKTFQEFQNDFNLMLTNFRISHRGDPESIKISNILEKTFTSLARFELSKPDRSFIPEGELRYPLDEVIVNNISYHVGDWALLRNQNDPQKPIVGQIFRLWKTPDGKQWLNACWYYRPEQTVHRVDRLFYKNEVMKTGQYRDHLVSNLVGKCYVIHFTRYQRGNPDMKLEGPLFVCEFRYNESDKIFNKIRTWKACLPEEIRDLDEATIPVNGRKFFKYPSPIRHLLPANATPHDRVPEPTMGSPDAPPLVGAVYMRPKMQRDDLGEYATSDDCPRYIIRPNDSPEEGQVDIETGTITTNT

[4] = molecular target: T1, Scer_Rsc1 221-596 basic-surface mutant
Scer_Rsc2 261-636 WT = Scer_Rsc2 261-636 WT (Saccharomyces cerevisiae, UniProt Q06488 261-636)
Scer_Rsc2 261-636 WT, sequence (Q06488 261-636): as the sequence (Q06488 261-636 K286E/K289E/K290E) above, with E26K, E29K, E30K counted along it

Scer_Rsc1 221-596 WT = molecular target: T2, Scer_Rsc1 221-596 WT

| Molecule | Kd [1] [µM] | Kd [2] [nM] | binding result [3] | binding result [4] | Kd (Scer_Rsc2 261-636 WT) [nM] | Kd (Scer_Rsc1 221-596 WT) [µM] |
| --- | --- | --- | --- | --- | --- | --- |
| ATCAGGTCGCTGTTCAATACATGCACAGGATGTATATATCTGACACGTGCCTGGAGACTAGGGAGTAATCCCCTTGGCGGTTAAAACGCGGGGGACAGCGCGTACGTGCGTTTAAGCGGTGCTAGAGCTGTCTACGACCAATTGAGCGGCCTCGGCACCGGGATTCTCCAGGGCGGCCGCGTATAGGGTCCATCGAT (double strand) [197bp 601 DNA] | 11.3 | 1900 |  |  |  |  |
| ATCGATGTATATATCTGACACGTGCCTGGAGACTAGGGAGTAATCCCCTTGGCGGTTAAAACGCGGGGGACAGCGCGTACGTGCGTTTAAGCGGTGCTAGAGCTGTCTACGACCAATTGAGCGGCCTCGGCACCGGGATTCTGAT (double strand) [145bp 601 DNA] | > 15 | 1900 |  |  |  |  |
| GCATCAGTCTTATAGGAAGAAAAACAAAAAGTCCATCGATCTAG (double strand) [A-rich (polyA) probe] |  | 7400 |  |  |  |  |
| B1 |  |  | no binding | no binding | 2900 | 3.7 |
